Experimental data from the DeepSol protein solubility set.

Experiment: soluble on expression in E. coli; label from the status in PepcDB or PDB records

MSLRFITPEKRTIEELRFPTREAADNAVKKIADGLSFDDLVKAENKTLNDIKKGPFTENELPSYLSSEIFELKQGQISAVINDLQGPVIIRVTDITPAGPIPFEKVEDNIRQTLAQNRAADDIRNSYTEIENARFEGASEGHHHHHH
soluble on expression in E. coli: soluble

MGALIPSSTLFNIFDFNPKKVRIAFIAVGLRGQTHVENMARRDDVEIVAFADPDPYMVGRAQEILKKNGKKPAKVFGNGNDDYKNMLKDKNIDAVFVSSPWEWHHEHGVAAMKAGKIVGMEVSGAITLEECWDYVKVSEQTGVPLMALENVCYRRDVMAILNMVRKGMFGELVHGTGGYQHDLRPVLFNSGINGKNGDGVEFGEKAFSEAKWRTNHYKNRNGELYPTHGVGPLHTMMDINRGNRLLRLSSFASKARGLHKYIVDKGGESHPNAKVEWKQGDIVTTQIQCHNGETIVLTHDTSLQRPYNLGFKVQGTEGLWEDFGWGEAAQGFIYFEKIMNHSHRWDSSEKWIKEYDHPMWKKHEQKAVGAGHGGMDYFLDNTFVECIKRNEAFPLDVYDLATWYSITPLSEKSIAENGAVQEIPDFTNGKWKNAKNTFAINDDY
soluble on expression in E. coli: soluble

MDVSYYDGPKDEVAEAMLKSAVTAMRLGQYEDGKGRLEEIMEFGTSNFQLLGTIYMYYGRVCRHLNHDAKALEFFEHELNMFKLIFNYPEACDSTRRIVEQALKMGKFPKARRFAEDLIDYTSNKKNGEKYIGQARILFASVCLEGCERDVESNQDEKKKLLSICAEQIAAVKLFNENNTEGAVSETKIMLLEAKCLSLDEKYEESRRKYQECIDFAIKTDQFEAVHIAYYDKALYAETDLLFFIIRDLRSALFYATKFGKERDVVKYKSKLSEEMLRNGEFHEAYLYGLEALVSIRKLGLNEYIGDVLLTIAKCLIALGKRRQAAYFIILGSVLTINQNSFKLFYEQIDVAMNQERSETATDQDVCLAIDSSPDPTSSNDMINKFVVELEHATNVETWEMIVNGIIDDQKKPVAIEKKENEEPVDMMDLIFSMSSRMDDQRTELPAARFIPPRPVSSASKKTTKSHRILPGLRANWTKVQSMKFDGHTMNRILKRSKKSKSSLDSTNSMQGDDTRSDDVTMTSK
soluble on expression in E. coli: not soluble

MKKVLLTLSLSIVASMGSFAQNEPYKNPKLTPEERAEDLLGRLTLKEKIGLMKNSSFAVERLGVAPYNWWSEALHGVARNGLATVFPITMGMASTFDDEAIERVYVAVSDEGRAKFHDAHRSNRYGYGNEGLTFWNPNVNIFRDPRWGRGQETFGEDPYLTTRMGVAVVKGMQGPADAEYDKAHACVKHYAVHSGPEAKRHSFDVEDLSPRDLWETYLPAFKALVQEADVKEVMCAYQRLEGEPCCDSNRLLTQILRDEWGYKHLVVSDCGAIDDFFVKGRHETHKDAADASASAVINGTDLECGSIYSHLEEAVKQGLITEERIDTSLRRLLKARFALGEMDP
soluble on expression in E. coli: not soluble

SMATKIDKEACRAAYNLVRDDGSAVIWVTFKYDGSTIVPGEQGAEYQHFIQQCTDDVRLFAFVRFTTGDAMSKRSKFALITWIGENVSGLQRAKTGTDKTLVKEVVQNFAKEFVISDRKELEEDFIKSELKKAGGANYDAQTE
soluble on expression in E. coli: soluble

MSRPKAIVRHGKRDTIVALLGWAGAVDRNVEKYAGIYQKKGYTTVQFTALAAVKGWGTKDGRNVDHLASTLDSVLINPSNRLVFHVFSMNGFIALTSLDSQFPELKAIEKCDGIFMDSCPACFSFSIENMQKHALVMNHVYDQLIKNSNFVLGNFYKVYKKWETARFGYQMIMDTMSIKAGLCTIEEANPFFYLLNHPHLPPILTSIFSDNDIVCSADEINLFNECAAKKSDKKRQIMATRLKDTAHVEHFRKYPKLYLEKMDEFLQKVEKLRNGGNSKL
soluble on expression in E. coli: not soluble

MAHHHHHHMYRAHSKDINRNKGFHPLTYRNLRRVEQLKEEAELNKQKAEERQKELQRDQEERRYDELVLANSADSLSGELARYRQTRSIFAAEYEADAKAAKDASVASLPSPQVSKPEVQLKTSAGASFPVNSFLSKFKKEESYGSTCVMVKAEARDNTAAAASSAVASAEAETPVRKRPRDDATSNSPSSTHNGSGYGEGATKRGGDGGESAPATGFVTSAEAAQLRKELNLAQKQRHDPLMRVKEYQNSCVAAAARQLDHEQATGAVAKREDDQDKLQSRIRELLALKKKKK
soluble on expression in E. coli: not soluble

MKTSSIIEFKNPISKYQHDVDDGLHSDYKVINNEFIHKSIRILENYQFIQSLSHADKSTLIQHLKIRKYYHNQTVYNQNDPCTDINILLEGALKLGWSTSQGKYHTDIFVPSGTLINIVPIVTGQPLLHDHIAQGRTVIANLPGQLFVDVIRNNADALFMVLKLICVRTQLNREQNFIYSTETLQTRLAKKLVFLVDYHSYQDKDKILLNLKLSQENLAELLQTSRQSINKELAALSNQNIIEVKYNQIFILDFEKLSNIAQTHQFHSTTKFL
soluble on expression in E. coli: not soluble

MRLKKIGEWLNASPEDQDKQNADLLQTLSKLTGKQLDANALQMLQNLLQAVESKNVSGTDQLLTETEKIFSEAKTALSANDSASDINGALKSDKEQSNQENEVSEPAKELIYIQMFISQLVEGNKLTDLGNGNEAHAIYQNGDQFLSALEKKGVSQQLIQDLKQQIFTKAESSSKLYSMTASELKSFQSLMDQMSMLPQKGTKEWSLAETQLKAFLLSKSSESSQDFGKSVLTPLSQSSSSKNASDVSGSIQPVDSKSGLQMLFSGYRGIGGVQTLDLQQMSSDIPNAETKTVADQVINAWKQMKYTPFGRSTGSFTIRLNPEHLGFVTIKLTNENGMFQSKIIASSQSAKELLEQHLPQLKQSLPNMAVQIDRFTLPVQSGDQPIYGQLADEQKQQQEGQRQQRQKKQSNDFGDLLDEVSMVEMEEEE
soluble on expression in E. coli: soluble

ADPAECSIKVMCRFRPLNEAEILRGDKFIPKFKGEETVVIGQGKPYVFDRVLPPNTTQEQVYNACAKQIVKDVLEGYNGTIFAYGQTSSGKTHTMEGKLHDPQLMGIIPRIAHDIFDHIYSMDENLEFHIKVSYFEIYLDKIRDLLDVSKTNLAVHEDKNRVPYVKGCTERFVSSPEEVMDVIDEGKANRHVAVTNMNEHSSRSHSIFLINIKQENVETEKKLSGKLYLVDLAGSEKV
soluble on expression in E. coli: soluble

MNRARKTSSCGCFRSAFCLLKPSTSSASEEHGDSDKKLLSVQLITPRDEEEQTSSRSIKIPPLDLNGLDCKKNAVAARRAGRRRTSEGGGVRGKGHFAEVVLDGLQRPVSLLRNQKEKSNSDDNCQEKEPTSPSSSRKKSYDNAPALESLEKLRYILHQLNSGQLPLEDLKRNIEYAALVLETAYMDETRRICDEDDDLAEVTPETVPDEVREWLAATFTRQNAGKKRDKPKFKSVANAIRTGIFFEKLFRKQQVVQCPIPPEIAELMKEVCTWSFSPFQLNEVSEGHALKYVGFELFNRYGFMDRFKVPLTALENYLSALEVGYSKHNNPYHNVVHAADVTQSSHFMLSQTGLANSLGDLELLAVLFGALIHDYEHTGHTNNFHIQSQSQFAMLYNDRSVLENHHVSSCFRLMKEDDKNILTHLTRDEYKELRNMVIEIVLATDMSTHFMQIKTMKSMLSLPEGIDKNKALCLIVHACDISHPAKPWNLHERWTEGVLEEFFRQGDLEASMGLPYSPLCDRHTVHVADSQIGFIDFIVEPTMVVCGELLVKMVEPLVSLPPTDSLFPPSVDGGDDKSPSNALSPLPDLRNSSTSPSSIRRIPLNYAGKLDIPTPWMKFLHENKAHWKERAAKEEEERKIKEAAEAEAAAKQVEENKENGVTTN
soluble on expression in E. coli: not soluble

MGSDKIHHHHHHVTEPIRLYYWPAPNFGDALSHLVVEHVSGRPVVNARPKQAELFALGSLMHVISRHWTERVRGEGPLLWGTGLLNPFYRKEFLENVRVRLLRGPISAAFLRLKMTEFGDPGLLADEAVGPVEDRHDRVAIVPHHSQMDDPRFVEMVEADPALHLIDVRLDPVTVCREIAASAHVFSASLHGLIVADAYGVANTWMDPEAQGRLKYHDYAAAIGRDMIAPVEIRDVPKAARTARDRPFPYADGIARCRESLHRHFPAELRAPLRATAS
soluble on expression in E. coli: not soluble

SQIPLCANLVPVPITNATLDRITGKWFYIASAFRNEEYNKSVQEIQATFFYFTPNKTEDTIFLREYQTRQNQCFYNSSYLNVQRENGTVSRYEGGREHVAHLLFLRDTKTLMFGSYLDDEKNWGLSFYADKPETTKEQLGEFYEALDCLCIPRSDVMYTDWKKDKCEPLEKQHEKERKQEEGES
soluble on expression in E. coli: soluble

MAIELYSQREIEKIRKASQIVAEVLHIVAENVKPGVSTWDLEMIARKETEKRGAKPAFLGYKPPFSDVRYPAALCISINDEVVHGLPKKEKVIKEGDVVSIDFGAIYDGYAGDSAITVIAGKGSPEAQKLLEATKEALYNAIEKALPGKKVGDITKAIHETAEKYGFKTILRYGGHGVGRKVHQEPFVPNNVKDIGKKNPRLRQGMVIAIEPMLSIGTEETVEDGDGWTVKTKDGSLAAHFEHTVAITKKGPVILTEL
soluble on expression in E. coli: soluble

MEAASIAVPGAGASLRAQALDALMTPAWADKLAAVAAIDAGAPVGAQQDLAEPAGLLGRPPAPQLVPPSQVRQRSVQSPEGRAALLHALAHIEFNAINLALDAVWRYGGLPDAYYLDWLKVAREEAYHFDLLNRHLSGLGHAYGDFPAHNGLWEMAEKTRADLLARLALVPRTLEARGLDASPLIRDKLAAAGDADGAAILEIILRDEIGHVAIGNHWYKALCAQRGLDPVAQYAQLASRYGAPRLRGPFNLEARRAAGFDEDELRALLQALEHHHHHH
soluble on expression in E. coli: not soluble

MGSDKIHHHHHHMTEGKSMFVGFDYGSANCAIGVMIDDAVSLLPLSTHSDFMPSTLYAMDRELIAEAVYQGLPEHLKAEYSHLRSSQLMRAKLMRHELDLSPNEQAVFVGQAAIDAYLDMPEEGFYVRSPKSFLGANGLRVEQIALFEDIVTLMMQHVKTLADKALNAKSLSSASHAVIGRPVNFQGIGGEDSNQQAETILRLAATRSGFTDVRFLFEPLAAGMDFESNLSDDNTVLVVDVGGGTTDCSVVKMGPSYIKQQDRSPDCFGHSGQRIGGNDLDIALAMTGLMPSFGADTLMINGKPMPRTPFWNAVAVNDISAQRDFVSLPSRKLVEQLIKEAQQPELLVRLQKVQKNQMSYQVVREAEAAKISLSDNDTIQCSLDFIEKGLLVPLTAAQFEQAINDPLAKVEALMKQAMQTATAKAEQQDCDMPTTPDIVYVTGGTARSPAIYNKIASVYPNAKVVVGDHFGSVTAGLTRCAEKCL
soluble on expression in E. coli: not soluble

MNDFRPNPSLLLETSWEVCNKQGGIYTVLTSRAHEMMKRHDGRIIFIGPLLTEQEDLPTDFENTVPAILEDWHRDAAPSLDLRYVCGSWRTPGSPPVVLVDFEPLHAQKATLYYEMWEHFGIQSDKGYGDYDEASLFGIAAAQTMHSLCEYLCPEDQPAIGIFNEWMLGMGLLYSKRKTPRLKTLFLTHATTTGRSIAGNNKALYAYMPGYNGDQMAAELGVEAKHGIEKAAAHQSDTFATVSELTAKECRQLLERDPMVLPNGFEPNFVPQGEEYERRRAEARKRLLHVAEHLTGKQLPADTLLIATSGRYEYRNKGIDLFIDAASEAGRSGK
soluble on expression in E. coli: not soluble

MAQVSTTAGGAVGVNRSQSMLLSSQEVEQMSAKSYAGELQKARAAGRLNTDPALTARVRRVSQRLIAQTPSFRPDARNWRWEVNVLTTDDMNAYAMAGGKIMVYTGLVKQLKLSDAELAAVIGHEISHALREHTRENMSQAYAQQMGLGLVGALVGLNDSQLKLASLVGDVTLSKPHSRTMESEADIMGLELMARAGYDPNAAVNVWQKMQAAGGGGGMEFLSTHPSGPTRIRDLQAHIPQVWPLYQAAPKKGLEHHHHHH
soluble on expression in E. coli: not soluble

MMEKSTLLQIKRDIETCVGQKIQLKANKGRKKAFIREGIVENTYPSIFVVKFENDYDTVRRVSYSYTDILTKAVEITVCEDNRKIQVS
soluble on expression in E. coli: soluble

MDFLKQPCAPLDFDLSREQIEGMLRSARFIKGSFSTRVVGHLPIDNSFRQVSVAIENETSSSIEIMTLERGDTFCGIPLKQRKIPFQNSLKSADIDFTYDDSGIDLTNAPVSFFIEGGRVASICWHHKHRN
soluble on expression in E. coli: not soluble
